The source of these data is PMC12455949 (Journal of Virology, 2025).

As a reminder, the Kd is the concentration at which binding is half-saturated. By koff is commonly meant the first-order rate constant of dissociation. As usually defined, the kon is a measure of how fast the partners come together. Read a high kon as faster complex formation.

The target in one test is COBRA HA TJ2 (COBRA TJ2, designed from influenza A …). In words: BLI. To be noted: both partners purified.
In the next test the target is COBRA HA J4 (COBRA J4, designed from influenza A …). In words: BLI. The settings on record: both partners purified.

B1: mAb TJ5-1 (antibody, V domains shown)
VH: EVQLVQSGAEVKKPGASVKVSCKASGYTFTGFYLHWVRQAPGQGLEWMGWINPHSGDTDFAQKFQGKVTMTRDTSSNTVYMDVNRLTSDDTAVYYCVKNDIVLGMGVWGQGTTVIVSS
VL: QSVLTQPPSVSGAPGQRVTISCTGSSSNIGAGYNVYWFQQLPPTAPKLLNYGDNNRPSGVPDRFSASKSGTSASLAITGLQAEDEAEYYCQSYDSSLNAYVFGTGTKVTVL
As to B1, in the test with COBRA HA TJ2, the Kd was 5640 pM, the koff came out at 0.00348 s⁻¹ and the kon is 230000 M⁻¹ s⁻¹. For the same molecule, in the test with COBRA HA J4, the dissociation constant (Kd) was 230 pM, the koff was determined as 6.67e-05 s⁻¹ and the kon stood at 284000 M⁻¹ s⁻¹.

B2: mAb #1664 (antibody, V domains shown)
VH: EVQVMQSGAEARMTGATVKISCKASGYTFSDYFLHWVKQAPGKGLEWMGLVDVDNGEVRYAEKFQGRVTITADTSTETAYLEMTTVTSGDTAVYYCASTTPRGGNPSVYNYFFVDVWGKGTTVTVSS
VL: QPVLTQSSSASASLGSSVKLTCTLSSGHDNYIIAWHQQQPGKAPRYLMQVGAGGTYNKGSGVPHRFSGSSSGADRYLTISNLQSDDEADYYCETWDSKTVFGGGTTLTVL
Turning to B2, in the test with COBRA HA TJ2, the equilibrium dissociation constant (Kd) is 450 pM, the koff was 5.44e-05 s⁻¹ and the association rate constant (kon) came to 121000 M⁻¹ s⁻¹. For the same molecule, in the test with COBRA HA J4, the affinity, expressed as Kd, was 15200 pM; the dissociation rate constant (koff) turned out to be 0.000454 s⁻¹; the on-rate constant (kon) turned out to be 30100 M⁻¹ s⁻¹.

B3: mAb TJ5-13 (antibody, V domains shown)
V domain 1: QVQLVQSGAEVKKPGSSVKVSCEASGDTFTTYSGINWVRQAPGQGLEWMGGVLPNFGSPNYAQRFQGRITITVDRSTSLVHMELTNLRSDDTAVYYCTETGAYNSVGYFPYFQFRGQGTLVSVSS
V domain 2: QSVLTQPPSVSGAPGQRVTISCTGSSSNIGADYDVHWYQQLPGTAPKLLIFGNNNRPSGVPDRFSGSKSGTSASLAITGLQAEDEADYYCQSFDKSLSGSFVFGTGTKVTGQ
Turning to B3, in the test with COBRA HA TJ2, binding was put at a Kd of 50 pM, the off-rate (koff) was 8.68e-06 s⁻¹ and the kon came to 159000 M⁻¹ s⁻¹. Also, in the test with COBRA HA J4, the dissociation constant (Kd) worked out at 260 pM, the koff was 3.06e-05 s⁻¹ and the on-rate constant (kon) worked out at 120000 M⁻¹ s⁻¹.
